Results taken from publication PMC10444775 (Scientific Reports, 2023).

Legend:
Conditions in all cases: both partners purified
[1] = biological target: CoV-2-S-RBD construct used for x-ray crystallography (SARS-CoV-2, UniProt P0DTC2); assay: crystal structure
[2] = biological target: SARS-CoV-2 RBD domain (used for HDX-MS of 7A9) (SARS-CoV-2, reference strain …); assay: HDX-MS
[3] = biological target: CoV-2-S-RBD-SD1 spike construct (SARS-CoV-2, UniProt P0DTC2); assay: ELISA

Measured: binding result

B1: 7A9 VHH (VHH)
VHH: QVQLVESGGGLVQAGGSLRLSCSASGGTASRSAMGWFRQAPGKEREFVAGISRRNSGSTYVADSYEDSVKGRFTISRDNAKNTIYLQMNSLKPEDTAVYYCAAEPTLGWYVPRRSVEYEYWGQGTQVTVSS
binds: [1] | [2] | [3]
